Source: patent US11591580B2, “K85 mutation-containing plant EPSPS mutant, and encoding gene and application thereof” (GEVOTO LLC, priority 2017, dated 2023)
Residue numbers refer to the chain shown, from its start.

B1: R0: wild-type rice EPSPS represented by SEQ ID NO: 2; control group of Example 5 (protein, listed as Oryza sativa)
chain: MASNAAAAAAKAEEIVLQPIREISGAVQLPGSKSLSNRILLLSALSEGTTVVDNLLNSEDVHYMLEALKALGLSVEADKVAKRAVVVGCGGKFPVEKDAKEEVQLFLGNAGTAMRPLTAAVTAAGGNATYVLDGVPRMRERPIGDLVVGLKQLGADVDCFLGTECPPVRVKGIGGLPGGKVKLSGSISSQYLSALLMAAPLALGDVEIEIIDKLISIPYVEMTLRLMERFGVKAEHSDSWDRFYIKGGQKYKSPGNAYVEGDASSASYFLAGAAITGGTVTVQGCGTTSLQGDVKFAEVLEMMGAKVTWTDTSVTVTGPPREPYGKKHLKAVDVNMNKMPDVAMTLAVVALFADGPTAIRDVASWRVKETERMVAIRTELTKLGASVEEGPDYCIITPPEKLNITAIDTYDDHRMAMAFSLAACADVPVTIRDPGCTRKTFPNYFDVLSTFVRN
B2: R1: rice EPSPS mutant I, SEQ ID NO: 4, containing one mutation K100(85)I (protein)
chain: B1 chain with K100I
modifications: Oryza sativa EPSPS mutant with mutation K100(85)I
B3: G0: wild-type soybean EPSPS represented by SEQ ID NO: 18; control group of Example 7 (protein)
chain: MAAAEKPSTAPEIVLEPIKDISGTITLPGSKSLSNRILLLAALSEGTTVVDNLLYSEDIHYMLGALRTLGLRVEDDQTTKQAIVEGCGGLFPTIKESKDEINLFLGNAGTAMRPLTAAVVAAGGNASYVLDGVPRMRERPIGDLVAGLKQLGADVDCFLGTNCPPVRVNGKGGLPGGKVKLSGSVSSQYLTALLMAAPLALGDVEIEIVDKLISVPYVEMTLKLMERFGVSVEHSGDWDKFLVHGGQKYKSPGNAFVEGDASSASYFLAGAAVTGGTITVNGCGTSSLQGDVKFAEVLEKMGAKVTWSENSVTVTGPPQDSSGQKVLQGIDVNMNKMPDVAMTLAVVALFANGQTTIRDVASWRVKETERMIAICTELRKLGATVEEGPDYCVITPPEKLNVTAIDTYDDHRMAMAFSLAACGDVPVTIKDPGCTRKTFPDYFEVLERFTRH
modifications: Glycine max

Key:
[1] = test system: EPSPS defective E. coli (E. coli DH5α with EPSPS gene and C-P Lyase gene being knocked out, EDCE); test: growth of E. coli transformed by genes encoding rice EPSPS (wild type and mutants) in culture media containing different glyphosate concentrations (Example 5, FIG. 1); assay type: cell-based; details: for EPSPS enzyme activity: concluded from growth of EPSPS defective E. coli at 0 mM glyphosate; for growth of transformed E. coli: culture media containing 1 mM glyphosate
Source text: E. coli transformed by the gene (SEQ ID NO: 3) encoding the rice EPSPS mutant I provided in Example 1 was taken as Experiment Group 1 (only containing a mutation K100(85)I).
E. coli transformed by the gene (with a nucleotide sequence represented by SEQ ID NO: 5, and an amino acid sequence of the encoded rice EPSPS mutant is represented by SEQ ID NO: 6) encoding the rice EPSPS mutant that contains only mutations G111(96)A and P116(101)S but no mutation K100(85)I was taken as Experiment Group 2.
E. coli transformed by the gene (SEQ ID NO: 7) encoding the rice EPSPS mutant II provided in Example 2 was taken as Experiment Group 3 (the encoded rice EPSPS mutant II contained three mutations: K100(85)I, G111(96)A and P116(101)S).
E. coli transformed by the gene (SEQ ID NO: 1, which encoded the wild-type rice EPSPS represented by SEQ ID NO: 2) encoding the wild-type rice EPSPS was taken as a control group.
The glyphosate resistance of the gene encoding the rice EPSPS mutant I and the rice EPSPS mutant I encoded thereby in E. coli, and the glyphosate resistance of the gene encoding the rice EPSPS mutant II and the rice EPSPS mutant II encoded thereby in E. coli were verified by detecting the growth situation of the transformed E. coli in culture media (culture media obtained by adding a certain concentration of antibiotics Spec (Spectinomycin), Gen (Gentamycin), Amp (Ampicillin) and glyphosate of different concentrations, with M9 as a basal culture medium) containing different glyphosate concentrations (0 mM, 1 mM, 10 mM, and 50 mM).
In the above, the E. coli used was double knockout E. coli, namely, EPSPS defective E. coli (E. coli DH5α with EPSPS gene and C-P Lyase gene being knocked out, named as EDCE, wherein for a preparation method thereof, reference can be made to a Chinese invention patent with the filing number CN2016103256926).
The detection method is a method commonly known in the art, and is briefly described as follows: synthesizing the gene encoding the rice EPSPS mutant by using a chemical synthesis method, introducing enzyme sites (Pac1 and Sbf1) at two ends thereof, connecting to an expression vector (for example, a pADV5 vector, the structure of which is shown in FIG. 4) that had undergone the same restriction enzyme digestion treatment under the action of ligase after restriction enzyme digestion, then transforming double knockout E. coli, picking positive colonies after verification, inoculating the positive colonies to a culture medium containing glyphosate for growth, and observing the growth situation.
Results are as shown in FIG. 1 (wherein R0 is a control group, R1 is Experiment Group 1, R2 is Experiment Group 2, and R3 is Experiment Group 3).

[2] = test system: transgenic rice seedlings; test: glyphosate resistance of the EPSPS mutant in transgenic rice plants sprayed with glyphosate (Example 8, Table 1); assay type: in vivo, rice (Nipponbare); details: for glyphosate resistance of transformed rice seedlings (in words): glyphosate sprayed at the 1× dosage
Source text: A method for detecting the glyphosate resistance of the G1 soybean EPSPS mutant (SEQ ID NO: 20), G2 soybean EPSPS mutant (SEQ ID NO: 22) and G3 soybean EPSPS mutant (SEQ ID NO: 24) provided in Example 7, the R1 rice EPSPS mutant (SEQ ID NO: 4) provided in Example 5, and the Z1 maize EPSPS mutant (SEQ ID NO: 12) provided in Example 6 in the transgenic rice is as follows:
The plasmids (containing the EPSPS mutant gene) of the monoclonal resistant bacteria of pADV5-EPSPS in Examples 1-7 were extracted by a conventional method, followed by double enzyme digestion by Pac1 and BstEII, the small fragments were collected, and then the small fragments were ligated, using T4 DNA ligase, to the pGVP1 vectors that had undergone the same double enzyme digestion, to obtain a pGVP1-EPSPS vector having a structure as shown in FIG. 8.
In the present example, the glyphosate resistance of the EPSPS mutant in transgenic rice plants were verified. An experiment method is as follows:
The transgenic rice seedlings transplanted were uniformly arranged in a same experiment area (preventing leaves from overlapping). The areas occupied by the experiment groups and the control group were calculated, and according to the areas, glyphosate was sprayed at a 1× dosage of 1060 g/hectare (0.106 g/m^2). 2× dosage was 2120 g/hectare, 5× dosage was 5300 g/hectare, and 20× dosage was 21200 g/hectare.
Commercially available Roundup® 41% ammonium glyphosate was used. Roundup® ammonium glyphosate with corresponding volumes was taken according to the above sprayed concentrations, then diluted with 20 times of volume of water, and then uniformly sprayed on the plants in the experiment groups and the control group. After leaf surfaces were dry, the plants were moved into greenhouse or outdoor to cultivate.
After the glyphosate was sprayed at the 1× dosage, growth states of the plants in each group were observed and recorded on a 10th day, and glyphosate was sprayed to the survived plants at the 2× dosage. The growth states of the plants in each group were observed and recorded 10 days later, and glyphosate was sprayed to the survived plants at the 5× dosage. The growth states of the plants in each group were observed and recorded 10 days later, and glyphosate was sprayed to the survived plants at the 20× dosage. The growth states of the plants in each group were observed and recorded 10 days later, and results are shown in Table 1, wherein corresponding numbers of plants denoted by −, +, ++ and +++ are listed, and “%++&+++” is percentage of plant having medium and high glyphosate resistance to the total number of plants observed.

[3] = test system: double knockout E. coli; test: growth of E. coli transformed by genes encoding soybean EPSPS (wild type and mutants) in culture media containing different glyphosate concentrations (Example 7, FIG. 3); assay type: cell-based; details: culture media containing 1 mM glyphosate
[4] = 1X dosage (1060 g/hectare glyphosate), recorded on 10th day
[5] = 2X dosage (2120 g/hectare) sprayed to plants surviving 1X, recorded 10 days later
[6] = 5X dosage (5300 g/hectare) sprayed to plants surviving 2X, recorded 10 days later
[7] = 20X dosage (21200 g/hectare) sprayed to plants surviving 5X, recorded 10 days later

| Molecule | % ++&+++ (percentage of plant having medium and high glyphosate resistance to the total number of plants observed) [2, 4] | number of plants with resistance + (low glyphosate resistance) [2, 4] | number of plants with resistance ++ (medium glyphosate resistance) [2, 4] | number of plants with resistance +++ (high glyphosate resistance) [2, 4] | number of plants with resistance − (no glyphosate resistance) [2, 4] | % ++&+++ (percentage of plant having medium and high glyphosate resistance to the total number of plants observed) [2, 5] | number of plants with resistance + (low glyphosate resistance) [2, 5] | number of plants with resistance ++ (medium glyphosate resistance) [2, 5] | number of plants with resistance +++ (high glyphosate resistance) [2, 5] | number of plants with resistance − (no glyphosate resistance) [2, 5] | % ++&+++ (percentage of plant having medium and high glyphosate resistance to the total number of plants observed) [2, 6] | number of plants with resistance + (low glyphosate resistance) [2, 6] | number of plants with resistance ++ (medium glyphosate resistance) [2, 6] | number of plants with resistance +++ (high glyphosate resistance) [2, 6] | number of plants with resistance − (no glyphosate resistance) [2, 6] | % ++&+++ (percentage of plant having medium and high glyphosate resistance to the total number of plants observed) [2, 7] | number of plants with resistance + (low glyphosate resistance) [2, 7] | number of plants with resistance ++ (medium glyphosate resistance) [2, 7] | number of plants with resistance +++ (high glyphosate resistance) [2, 7] | number of plants with resistance − (no glyphosate resistance) [2, 7] | other results |
| --- | --- | --- | --- | --- | --- | --- | --- | --- | --- | --- | --- | --- | --- | --- | --- | --- | --- | --- | --- | --- | --- |
| B1 | 0.0% | 1 | 0 | 0 | 30 | 0.0% | 0 | 0 | 0 | 31 | 0.0% | 0 | 0 | 0 | 31 | 0.0% | 0 | 0 | 0 | 31 | EPSPS enzyme activity [1]: normal EPSPS enzyme activity; growth of transformed E. coli [1]: grew slowly; glyphosate resistance of transformed rice seedlings (in words) [2]: had no resistance, one was seriously damaged, and all the others died |
| B2 | 88.9% | 0 | 0 | 16 | 2 | 27.8% | 5 | 4 | 1 | 8 | 11.1% | 3 | 2 | 0 | 13 | 0.0% | 2 | 0 | 0 | 16 | EPSPS enzyme activity [1]: normal EPSPS enzyme activity; growth of transformed E. coli [1]: obviously grew better than the control group (R0); glyphosate resistance of transformed rice seedlings (in words) [2]: obviously superior to that of the rice seedlings transformed by R0 |
| B3 | 0.0% | 0 | 0 | 0 | 36 | 0.0% | 0 | 0 | 0 | 36 | 0.0% | 0 | 0 | 0 | 36 | 0.0% | 0 | 0 | 0 | 36 | growth of transformed E. coli [3]: substantially could not grow; glyphosate resistance of transformed rice seedlings (in words) [2]: had no resistance and died |
